Measurements taken from patent CN110982824A.

Columns and labels:
PD-L1 [1] = target: PD-L1 (UniProt Q9NZQ7); experiment: competition ELISA, PD-1 at 50 μg/ml, BP at 200 μg/ml
PD-L1 [2] = target: PD-L1 (UniProt Q9NZQ7); experiment: ELISA, PD-L1 coated, BP at 200 μg/ml, reference PD-1 binding PD-L1

Chain of UniProt Q9NZQ7 (Q9NZQ7 19-238 limits assumed): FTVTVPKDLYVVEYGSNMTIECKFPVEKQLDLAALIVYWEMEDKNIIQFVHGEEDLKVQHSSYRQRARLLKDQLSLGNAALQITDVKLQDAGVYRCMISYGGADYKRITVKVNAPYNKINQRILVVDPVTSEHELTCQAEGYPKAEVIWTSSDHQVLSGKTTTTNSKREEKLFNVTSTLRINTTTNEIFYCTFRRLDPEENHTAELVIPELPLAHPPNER

抑制率 (inhibition of PD-1 binding to PD-L1) (PD-L1 [1]): 25%
结合强度 (relative to PD-1 binding PD-L1) (PD-L1 [2]): 115%
B1: 拮抗PD-1的抗体类似物BP蛋白 (VHH, not shown: small tags and cut ends)
VHH: DVQLQASGGGSVQAGGSLRLSCAASGYTIGTYAISWFRQAPGKEREGVAGIIPIFGKAHTYYADSVKGRFTISQDNAKNTVYLLMNSLEPEDTAIYYCAAKFHFVSGSPFGMDSWGQGTQVTVSS
